{
  "source": "patent US20080108128A1",
  "about": "“Resonance Energy Transfer Assay System for Multi-Component Detection” (priority 2003, published 2008)",
  "molecular_target": "T1, CCR2 (Homo sapiens, UniProt P41597)",
  "T1 construct": "expressed in transfected cells; host or cells: Cos-7",
  "T1 sequence (P41597 1-360 isoform P41597-2)": "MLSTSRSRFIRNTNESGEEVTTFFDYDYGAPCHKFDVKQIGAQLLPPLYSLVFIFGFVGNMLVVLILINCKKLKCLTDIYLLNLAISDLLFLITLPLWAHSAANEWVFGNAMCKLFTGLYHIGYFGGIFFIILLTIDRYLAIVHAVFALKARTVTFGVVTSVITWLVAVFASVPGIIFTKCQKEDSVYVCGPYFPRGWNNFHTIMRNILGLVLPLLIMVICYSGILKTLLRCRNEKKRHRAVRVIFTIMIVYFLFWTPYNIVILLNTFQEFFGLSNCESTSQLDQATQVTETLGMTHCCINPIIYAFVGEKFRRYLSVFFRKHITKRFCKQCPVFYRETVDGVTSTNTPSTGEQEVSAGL",
  "T1 sequence (P32120 whole entry partner, the tested form may be a part)": "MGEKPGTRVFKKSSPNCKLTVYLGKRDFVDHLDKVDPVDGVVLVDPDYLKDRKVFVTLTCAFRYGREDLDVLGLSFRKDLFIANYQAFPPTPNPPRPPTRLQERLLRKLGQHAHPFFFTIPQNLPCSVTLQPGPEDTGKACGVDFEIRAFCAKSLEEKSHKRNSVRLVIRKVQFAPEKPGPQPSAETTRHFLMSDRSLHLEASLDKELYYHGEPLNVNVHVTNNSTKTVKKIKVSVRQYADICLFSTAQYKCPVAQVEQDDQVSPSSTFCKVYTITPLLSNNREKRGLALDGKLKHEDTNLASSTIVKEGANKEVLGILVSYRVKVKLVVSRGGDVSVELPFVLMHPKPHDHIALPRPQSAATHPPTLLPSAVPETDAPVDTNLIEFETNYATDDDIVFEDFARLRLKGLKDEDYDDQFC",
  "assay": "multiplex BRET assay of ligand induced CCR2:beta-arrestin-2 interaction in live Cos-7 cells",
  "format": "cell-based",
  "conditions": "Cos-7 cells co-expressing Rluc-Barr2, TRHR and CCR2 fusions (EYFP / t-dimer2(12)); MCP1 0.1 μM, 37° C. 10 min; coelenterazine h 5 μM",
  "text": "A construct for the expression of bovine beta-arrestin-2, N-terminally fused to Rluc (Rluc-Barr2) was constructed by amplification of the bovine beta-arrestin-2 coding sequence by PCR using the Barr2-fw and Barr2-re primers (template: construct containing bovine beta-arrestin2 in pcDNA3 (Invitrogen)). The 5′ and 3′ primers used contained EcoRV and NotI restriction enzyme sites, respectively. A second PCR product, containing the coding sequence for Rluc, was generated by amplifying the Rluc cDNA sequence with the primers Rluc-fw and Rluc-re using the plasmid pRL-CMV (Promega) as a template. This second PCR product contained HindIII and EcoRV restriction site at the 5′ and 3′ ends, respectively. Both PCR products were then cloned together into the HindIII/NotI sites of pcDNA3 (Invitrogen). […]\nLigands or combinations of ligands were added to the samples to a final concentration of 1 μM for TRH and 0.1 μM for MCP1, the natural ligands for the TRHR and CCR2 receptors, respectively. […] A Varian Eclipse fluorescence spectrometer (Varian) was used to record luminescence spectra in the range between 400-700 nm after coelenterazine h (Molecular Probes) was added to the samples to a final concentration of 5 μM.\nThe spectra were further analysed by integrating the peak areas of the EYFP and t-dimer2(12) emission peaks as described in Example 2. […]",
  "data": [
    {"substance": "MCP1: natural ligand for the CCR2 receptor", "values": [
      {"measurement": "ligand induced RET signal of CCR2 with Rluc-beta-arrestin-2", "value": "activated this receptor as was observed in an increase of the respective RET signal with beta-arrestin-2"}
    ]}
  ]
}
